± gives the uncertainty stated by the source.
Assay: protein stability index of a GFP-peptide fusion (yeast GPS) (PSI 1-4); higher = more stable; sorted into four equal gates, so the index is relative within each strain
How it was run: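 Mid-log yeast cultures in leucine-free medium, carrying a pooled plasmid library, were sorted into four equal gates by their GFP/Cherry fluorescence ratio. Each plasmid expressed Cherry along with GFP fused upstream of a tiled 17-residue yeast protein peptide. Plasmids recovered from each gate were PCR-amplified and Illumina-sequenced, with reads assigned to strains by barcodes. The protein stability index was obtained by summing each gate's read frequency weighted by its gate number.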

Sequence | protein stability index (doa10∆) | protein stability index (pdr5∆) | protein stability index (san1∆) | protein stability index (ubr1∆)
VLTGGYLDQHKRTRLES [SMC3] | 2.26 ± 0.17 | 2.04 ± 0.23 | 1.19 ± 0.16 | 2.62 ± 0.26
VLTNIEVYRTSLNTKKN [SMC3] | 2.61 ± 0.17 | 3.08 ± 0.19 | – | 2.85 ± 0.12
VLTRMDEDRSKKEEELG [SNF2] | 3.51 ± 0.11 | 3.22 ± 0.1 | 3.38 ± 0.071 | 3.27 ± 0.084
VLVLHGDKDTRADIVRN [ISW2] | 3.02 ± 0.063 | 3.17 ± 0.063 | 2.9 ± 0.078 | 3.06 ± 0.054
VLVVRGSKKGQEGKISS [RPL26A] | 3.54 ± 0.085 | 3.19 ± 0.099 | 3.06 ± 0.068 | 3.44 ± 0.084
VLYYRDARSSRNFSLAI [PRE4] | 2.85 ± 0.14 | 2.63 ± 0.12 | 1.99 ± 0.15 | 2.39 ± 0.085
VNASVDVDQHGNDNNSD [SWI3] | 3.13 ± 0.085 | 3.46 ± 0.081 | 3.52 ± 0.059 | 3.3 ± 0.038
VNKVPQNVAGDKTAVKL [SWP82] | 2.71 ± 0.16 | 3.04 ± 0.11 | 2.8 ± 0.096 | 3.07 ± 0.071
VNLEDNTQDLLLLLSLF [YML103C/NUP188] | 1.68 ± 0.13 | 2.7 ± 0.12 | 2.41 ± 0.14 | 2.47 ± 0.091
VNLSEVMTVPGIDPTRI [RPO21] | 2.92 ± 0.083 | 3.07 ± 0.094 | 3.11 ± 0.05 | 3.05 ± 0.064
VNRQSPLFFVDLKLLFN [RGR1] | 1.53 ± 0.065 | 1.54 ± 0.074 | 1.29 ± 0.13 | 1.23 ± 0.11
VNTMGTGGQTIDNGTGR [MED6] | 3.27 ± 0.14 | 3.06 ± 0.24 | 3.19 ± 0.077 | 3.19 ± 0.073
VPFESLQGVTYPVLRKL [YIL149C/MLP2] | 2.82 ± 0.11 | 2.56 ± 0.075 | 2.32 ± 0.12 | 2.27 ± 0.068
VPFIIAAMVIMHLMALH [COB] | 2.08 ± 0.055 | 1.31 ± 0.055 | 1.79 ± 0.16 | 1.43 ± 0.041
VPIERVAQLKPFFKYID [RPC37] | 2.54 ± 0.062 | 2.24 ± 0.054 | 2.34 ± 0.054 | 2.71 ± 0.052
VPLSDNAIIEANLGKYG [RPL7A] | 2.29 ± 0.073 | 2.25 ± 0.074 | 2.45 ± 0.074 | 2.28 ± 0.075
VPLTKRYQHLEKITQIS [PCI8] | 2.39 ± 0.28 | 2.22 ± 0.11 | – | 1.71 ± 0.096
VPNYEVSEKAFLLTQSK [RPN7] | 3.17 ± 0.18 | 3.47 ± 0.24 | – | 2.75 ± 0.14
VPPINCIFNFLQQQTPV [SME1] | 1.34 ± 0.042 | 1.58 ± 0.035 | 1.49 ± 0.065 | 1.64 ± 0.042
VPSAKPLILTPPQLANQ [SNF11] | 2.63 ± 0.049 | 2.26 ± 0.052 | 2.64 ± 0.052 | 2.03 ± 0.033
VPSPTGEYVKEPEWVLE [RPO21] | 3 ± 0.11 | 3.07 ± 0.12 | 2.85 ± 0.28 | 3.15 ± 0.062
VPTIGVVNSNFAKEHNA [YJR042W/NUP85] | 2.51 ± 0.072 | 2.61 ± 0.075 | 2.59 ± 0.058 | 2.54 ± 0.034
VPTKIARGTIEIVSDVK [RPP0] | 2.26 ± 0.25 | 2.38 ± 0.055 | 2 ± 0.17 | –
VPVIESAGFETDLRLST [SNU114] | 3.14 ± 0.21 | 3.12 ± 0.23 | – | 3.17 ± 0.14
VQEMALGGPITKESQPT [FAS2] | 2.78 ± 0.099 | 2.72 ± 0.078 | 2.87 ± 0.065 | 3.01 ± 0.05

Sequence | protein stability index (doa10∆) | protein stability index (pdr5∆) | protein stability index (san1∆) | protein stability index (ubr1∆)
VQGAAPWDTSLEVGRRF [MCD1] | 3.48 ± 0.13 | 3.39 ± 0.13 | 3.28 ± 0.088 | 3.43 ± 0.16
VQGMNDDIFIRYLTLLS [ECM29] | 1.37 ± 0.053 | 1.39 ± 0.057 | 1.8 ± 0.14 | 1.15 ± 0.031
VQKILPLSNEVFEISEN [SWI1] | 2.13 ± 0.043 | 1.85 ± 0.039 | 1.73 ± 0.06 | 2.17 ± 0.035
VQNLRSWETKLKQNILE [CSN9] | 1.83 ± 0.077 | 2.04 ± 0.094 | 2.3 ± 0.11 | 1.82 ± 0.083
VQVSKAGGLPMDALTLM [RRP45] | 1.28 ± 0.12 | 1.23 ± 0.18 | 1.1 ± 0.2 | 1.08 ± 0.14
VRAEELNISGEFFRNKL [RPL16A] | 3.67 ± 0.21 | 3.17 ± 0.23 | 3.07 ± 0.18 | 3.36 ± 0.2
VREFLEKNYDRKEPPAT [PRE6] | 3.29 ± 0.13 | 3.28 ± 0.1 | 3.11 ± 0.071 | 3.3 ± 0.068
VREYEQPDANKKKRSRT [ISW2] | 3.13 ± 0.14 | 3.31 ± 0.12 | 3.25 ± 0.13 | 3.29 ± 0.11
VRIDLGTIDKLQLELTI [RPO31] | 1.99 ± 0.049 | 2.21 ± 0.052 | 2.5 ± 0.053 | 2.91 ± 0.042
VRLQRQKKILSIRLKVP [RPL8B] | 1.5 ± 0.032 | 1.29 ± 0.032 | 1.27 ± 0.055 | 1.25 ± 0.025
VRPSISFNESQRGEDDL [RPO21] | 2.49 ± 0.078 | 2.81 ± 0.088 | 2.75 ± 0.093 | 2.68 ± 0.083
VRSFSKALDELKPEIEK [LRP1] | 3.39 ± 0.088 | 3.39 ± 0.074 | 3.31 ± 0.052 | 3.22 ± 0.064
VSCYRPRRDGERKRKSV [RPS6A] | 1.79 ± 0.22 | 2.91 ± 0.17 | 3.51 ± 0.13 | 3.38 ± 0.082
VSDSNDDVRRAAVIALG [RPN2] | 3.26 ± 0.1 | 3.26 ± 0.13 | 2.7 ± 0.17 | 3.42 ± 0.14
VSECIILGQTMSIGTGS [RPO31] | 2.06 ± 0.078 | 2 ± 0.061 | 1.89 ± 0.086 | 2.58 ± 0.055
VSETPKRIKGLEFSALS [RPO31] | 3.01 ± 0.12 | 2.94 ± 0.12 | 3.01 ± 0.086 | 2.97 ± 0.1
VSFNDSQSMVTNKENNI [YIL149C/MLP2] | 2.96 ± 0.057 | 3.3 ± 0.076 | 3.02 ± 0.057 | 3.16 ± 0.046
VSFNSKQNEQLHVEQLS [SMC3] | 2.27 ± 0.071 | 2.72 ± 0.087 | 2.47 ± 0.1 | 2.85 ± 0.066
VSKEQFLKDADVECIKA [YJL039C/NUP192] | 1.45 ± 0.043 | 1.61 ± 0.059 | 2.17 ± 0.079 | 1.89 ± 0.042
VSKQLGNGLVDENKVEA [YAR002W/NUP60] | 3.17 ± 0.082 | 3.02 ± 0.068 | 3.38 ± 0.048 | 3.21 ± 0.049
VSKVQKRKVLELKKKRK [SRP72] | 2.78 ± 0.1 | 2.57 ± 0.13 | 2.24 ± 0.1 | 2.48 ± 0.054
VSLCAKNMGLVPMKEEN [SSN2] | 1.89 ± 0.086 | 2.38 ± 0.075 | 1.99 ± 0.11 | 2.26 ± 0.093
VSLEERTKNLVSKMEKA [SMC4] | – | 2.95 ± 0.064 | – | –
VSLQNFSSSVSLSYMAF [RRP40] | 2.22 ± 0.047 | 1.64 ± 0.041 | 1.76 ± 0.074 | 1.83 ± 0.04
VSLTQLRCVKYLQETAI [RPC82] | 1.82 ± 0.14 | 2.18 ± 0.1 | – | 3.1 ± 0.28
